Legend:
[1] = molecular target: T1, S2B‐W104A‐6G11 post MMP‐9 digestion (scFv cleaved off, not removed) (human | chicken); experiment: BLI
[2] = molecular target: T2, S2B‐R101A‐6G11 post MMP‐9 digestion (scFv cleaved off, not removed) (human | chicken); experiment: BLI
[3] = molecular target: T3, S2B‐Y52A‐6G11 post MMP‐9 digestion (scFv cleaved off, not removed) (human | chicken); experiment: BLI
[4] = molecular target: T3, S2B‐Y52A‐6G11 post MMP‐9 digestion …; experiment: BLI; MMP-9 cleaved
Target sequence in this assay (heavy, as listed by the source, chain 2 of 2): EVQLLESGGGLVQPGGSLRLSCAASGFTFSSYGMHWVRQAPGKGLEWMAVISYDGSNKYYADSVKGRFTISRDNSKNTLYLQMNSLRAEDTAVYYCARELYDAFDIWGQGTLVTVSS
Target sequence in this assay (light, as listed by the source, chain 4 of 2): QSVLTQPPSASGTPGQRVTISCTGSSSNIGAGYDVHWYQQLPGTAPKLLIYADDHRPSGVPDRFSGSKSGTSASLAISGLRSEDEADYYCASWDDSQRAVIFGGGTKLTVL

[5] = molecular target: T1, S2B‐W104A‐6G11 post MMP‐9 digestion …; experiment: BLI; MMP-9 cleaved
Target sequence in this assay (heavy, as listed by the source, chain 2 of 2): as the sequence (heavy, as listed by the source, chain 2 of 2) above
Target sequence in this assay (light, as listed by the source, chain 4 of 2): as the sequence (light, as listed by the source, chain 4 of 2) above

[6] = molecular target: T2, S2B‐R101A‐6G11 post MMP‐9 digestion …; experiment: BLI; MMP-9 cleaved
Target sequence in this assay (heavy, as listed by the source, chain 2 of 2): as the sequence (heavy, as listed by the source, chain 2 of 2) above
Target sequence in this assay (light, as listed by the source, chain 4 of 2): as the sequence (light, as listed by the source, chain 4 of 2) above

[7] = molecular target: T4, 6G11 (BI‐1206), full‐length antibody containing the PGLALA Fc mutations (human); experiment: BLI
[8] = molecular target: T4, 6G11 (BI‐1206), full‐length antibody …; experiment: ELISA
[9] = molecular target: T4, 6G11 (BI‐1206), full‐length antibody …; experiment: ELISA; first of two printed values (3.3/28.7)

T4 sequence (VH, as listed by the source, chain 1 of 2): as the sequence (heavy, as listed by the source, chain 2 of 2) above
T4 sequence (VL, as listed by the source, chain 2 of 2): as the sequence (light, as listed by the source, chain 4 of 2) above

Kd [7] [nM]	EC50 [8] [nM]	Binder	other results
9.6	6.7	S2B W104A scFv, solitary (scFv, V domains shown) VH: AVTLDESGGGLQTPGGGLSLVCKASGFTFSSYSMVWVRQAPSKRLEWVAGIYSSATWTYYAPAVKGRATISRDNGQSTVRLQLNDLRAEDTGTYFCAKTSRSGATAYSASAIDAWGHGTEVIV VL: ALTQPSSVSANPGETVKITCSGGSSYYGWYQQKSPGSAPVTVIYSNDKRPSDIPSRFSGSTSGSTATLTITGVQADDEAVYFCGGYDSNIHGGIFGAGTTLTVL	–
1	–	S2B scFv (blocking anti‐6G11 scFv clone 2), solitary (scFv, V domains shown) VH: AVTLDESGGGLQTPGGGLSLVCKASGFTFSSYSMVWVRQAPSKRLEWVAGIYSSATWTYYAPAVKGRATISRDNGQSTVRLQLNDLRAEDTGTYFCAKTSRSGWTAYSASAIDAWGHGTEVIV VL: ALTQPSSVSANPGETVKITCSGGSSYYGWYQQKSPGSAPVTVIYSNDKRPSDIPSRFSGSTSGSTATLTITGVQADDEAVYFCGGYDSNIHGGIFGAGTTLTVL	EC50 [9]: 3.3 nM

More lines, now with the values behind:

Binder	Kd [7] [nM]	EC50 [8] [nM]	other results
His‐tagged human FcγRIIB extracellular domain protein (domain or fragment) TPAAPPKAVLKLEPQWINVLQEDSVTLTCRGTHSPESDSIQWFHNGNLIPTHTQPSYRFKANNNDSGEYTCQTGQTSLSDPVHLTVLSEWLVLQTPHLEFQEGETIVLRCHSWKDKPLVKVTFFQNGKSKKFSRSDPNFSIPQANHSHSGDYHCTGNIGYTLYSSKPVTITVQAP	–	–	Kd [1]: 10.3 nM; Kd [2]: 10.7 nM; Kd [3]: 10.1 nM; Kd [4]: 10.1 nM; Kd [5]: 10.3 nM; Kd [6]: 10.7 nM
S2B Y52A scFv, solitary (scFv, V domains shown) VH: AVTLDESGGGLQTPGGGLSLVCKASGFTFSSYSMVWVRQAPSKRLEWVAGIASSATWTYYAPAVKGRATISRDNGQSTVRLQLNDLRAEDTGTYFCAKTSRSGWTAYSASAIDAWGHGTEVIV VL: ALTQPSSVSANPGETVKITCSGGSSYYGWYQQKSPGSAPVTVIYSNDKRPSDIPSRFSGSTSGSTATLTITGVQADDEAVYFCGGYDSNIHGGIFGAGTTLTVL	4.3	11.2	–
S2B R101A scFv, solitary (scFv, V domains shown) VH: AVTLDESGGGLQTPGGGLSLVCKASGFTFSSYSMVWVRQAPSKRLEWVAGIYSSATWTYYAPAVKGRATISRDNGQSTVRLQLNDLRAEDTGTYFCAKTSASGWTAYSASAIDAWGHGTEVIV VL: ALTQPSSVSANPGETVKITCSGGSSYYGWYQQKSPGSAPVTVIYSNDKRPSDIPSRFSGSTSGSTATLTITGVQADDEAVYFCGGYDSNIHGGIFGAGTTLTVL	–	3.7	–
S2B S164A scFv, solitary (scFv, V domains shown) VH: AVTLDESGGGLQTPGGGLSLVCKASGFTFSSYSMVWVRQAPSKRLEWVAGIYSSATWTYYAPAVKGRATISRDNGQSTVRLQLNDLRAEDTGTYFCAKTSRSGWTAYSASAIDAWGHGTEVIV VL: ALTQPSSVSANPGETVKITCSGGASYYGWYQQKSPGSAPVTVIYSNDKRPSDIPSRFSGSTSGSTATLTITGVQADDEAVYFCGGYDSNIHGGIFGAGTTLTVL	0.8	2.7	–

From PMC11629141 (2024)
